{"source": "patent US10087225B2", "about": "“Formulation of MK2 inhibitor peptides” (MOERAE MATRIX, INC., priority 2015, dated 2018)", "target": "T1, IKKβ(h) (Homo sapiens, UniProt O14920)", "T1 sequence (O14920 1-756)": "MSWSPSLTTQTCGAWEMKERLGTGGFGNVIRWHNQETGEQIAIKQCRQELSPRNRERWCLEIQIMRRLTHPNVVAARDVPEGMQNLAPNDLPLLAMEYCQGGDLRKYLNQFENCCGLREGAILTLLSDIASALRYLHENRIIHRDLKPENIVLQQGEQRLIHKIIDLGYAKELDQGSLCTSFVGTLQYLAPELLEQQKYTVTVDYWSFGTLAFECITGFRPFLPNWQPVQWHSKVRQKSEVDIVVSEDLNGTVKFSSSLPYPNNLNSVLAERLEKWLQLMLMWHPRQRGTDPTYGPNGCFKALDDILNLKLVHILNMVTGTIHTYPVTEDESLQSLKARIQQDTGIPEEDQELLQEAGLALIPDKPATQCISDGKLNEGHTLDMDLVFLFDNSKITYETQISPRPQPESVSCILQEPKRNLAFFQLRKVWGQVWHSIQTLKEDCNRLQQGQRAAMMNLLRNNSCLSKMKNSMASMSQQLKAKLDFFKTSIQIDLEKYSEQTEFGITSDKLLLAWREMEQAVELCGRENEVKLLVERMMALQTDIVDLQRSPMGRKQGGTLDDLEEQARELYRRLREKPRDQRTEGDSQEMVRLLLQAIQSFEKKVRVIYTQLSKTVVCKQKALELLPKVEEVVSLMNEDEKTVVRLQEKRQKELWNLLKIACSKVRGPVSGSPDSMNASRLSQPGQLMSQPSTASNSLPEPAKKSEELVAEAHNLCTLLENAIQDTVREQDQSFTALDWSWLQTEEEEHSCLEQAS", "test": "Kinase Profiling Assay", "assay_type": "biochemical", "details": "100 μM"}
{"sequence": "HRRIKAWLKKIKALARQLGVAA (Mammalian) [MMI-0500]", "values": [{"measurement": "% activity", "value": 71, "unit": "%"}]}
